Test [1] addresses T1, Recombinant soluble RSV F stabilized in the pre-fusion conformation (soluble, processed, stabilized RSV F … (respiratory syncytial virus (RSV), UniProt P03420 26-513)).
T1 construct: also called RSV pre-fusion F protein; RSV prefusion F
Nature of the test: sandwich ELISA: antibody coated, preF titrated, CR9506-HRP detection; preF alone. For orientation: An ELISA detects its analyte on a solid surface through an enzyme-linked reagent.

Test [2] has as its target T1, Recombinant soluble RSV F stabilized in …. Nature of the test: sandwich ELISA: antibody coated, preF titrated, CR9506-HRP detection; preF + DMSO.
The target is the same in test [3]. Nature of the test: sandwich ELISA: antibody coated, preF titrated, CR9506-HRP detection; preF + compound III, trimer:compound 1:3.
Test [4] shares this target. The test can be described thus: sandwich ELISA: antibody coated, preF titrated, CR9506-HRP detection; preF + compound VII, trimer:compound 1:3.
Test [5] has the same target. The test can be described thus: sandwich ELISA: antibody coated, preF titrated, CR9506-HRP detection; preF + compound III, trimer:compound 1:10.
Test [6] has the same target. Nature of the test: sandwich ELISA: antibody coated, preF titrated, CR9506-HRP detection; preF + compound III, trimer:compound 1:50.
Test [7] has the same target. Nature of the test: sandwich ELISA: antibody coated, preF titrated, CR9506-HRP detection; preF + compound VII, trimer:compound 1:10.
Test [8] shares this target. The test can be described thus: sandwich ELISA: antibody coated, preF titrated, CR9506-HRP detection; preF + compound VII, trimer:compound 1:50.

B1: CR9506 (antibody, human IgG1, kappa, V domains shown)
VH: EVQLVQSGAEVKKPGSSVKVSCKASGGTFSRSLITWVRQAPGQGLEWMGEISLVFGSAKNAQKFQGRVTITADESTSTAHMEMISLKHEDTAVYYCAAHQYGSGTHNNFWDESELRFDLWGQGTLVTVSS
VL: DIVMTQSPSSLSASVGDRVTIACRASQSIGTYLNWYQQKPGKAPKLLIYAASSLQSGVPSRFSGSGSGTHFTLAISSLQAEDFATYSCQQSYTIPYTFGQGTKLEIKR
notes: An HRP-labelled CR9506 was also the detection antibody in the ELISA; also called CR9506 (pan)
As for B1, the IC50 in test [1] came out at 280 pM. The EC50 in test [2] came to 290 pM; in test [4] it was 320 pM; in test [6], 310 pM; in test [7], 290 pM. The figures for the “EC50 (half-maximal binding concentration)” value in test [3], in test [5] and in test [8] were 300 pM, 290 pM and 310 pM, respectively.

Usually IC50 stands for the midpoint of a concentration-inhibition curve. In general, EC50 refers to the concentration giving half of the maximal effect.

The record behind these values is patent publication US20230310573A1 (Janssen / Centocor, published 2023).
